The numbers were not newly measured in paper PMC4353500, which cites them from elsewhere.

One may read the Kd as a measure of binding affinity in units of concentration.

One data set concerns the target Cavβ4b (UniProt D4A055).
The next data set deals with Cavβ2a (UniProt Q08289).
Chain of Cavβ2a (Q08289 whole entry): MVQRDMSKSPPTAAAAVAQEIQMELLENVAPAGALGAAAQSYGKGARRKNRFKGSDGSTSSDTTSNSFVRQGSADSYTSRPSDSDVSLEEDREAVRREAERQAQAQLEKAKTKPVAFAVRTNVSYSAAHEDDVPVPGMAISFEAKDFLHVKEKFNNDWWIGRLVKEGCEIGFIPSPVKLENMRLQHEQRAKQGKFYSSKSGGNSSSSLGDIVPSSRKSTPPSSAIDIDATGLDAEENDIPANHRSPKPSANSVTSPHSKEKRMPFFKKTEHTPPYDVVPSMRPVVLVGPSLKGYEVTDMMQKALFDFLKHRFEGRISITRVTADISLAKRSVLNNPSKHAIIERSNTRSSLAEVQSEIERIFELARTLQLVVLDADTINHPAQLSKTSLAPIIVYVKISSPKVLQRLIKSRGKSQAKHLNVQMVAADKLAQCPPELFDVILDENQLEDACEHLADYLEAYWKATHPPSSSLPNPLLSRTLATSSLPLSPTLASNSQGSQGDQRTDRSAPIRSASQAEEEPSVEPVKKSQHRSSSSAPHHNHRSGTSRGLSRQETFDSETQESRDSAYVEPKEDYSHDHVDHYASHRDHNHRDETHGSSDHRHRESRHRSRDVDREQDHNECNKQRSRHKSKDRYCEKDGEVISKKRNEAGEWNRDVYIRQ

Consider RIM1 CTD (from UniProt Q99NE5), for which the Kd with Cavβ4b and in the data set with Cavβ2a was 35 nM in each case.
